Measurements: paper PMC5634629, “Heterodimerization of two pore domain K^+ channel TASK1 and TALK2 in living heterologous expression systems” (PLoS ONE, 2017)

T1: CFP-TALK2 (human, UniProt Q96T54-3 1-332)
T1 construct: human TALK2 (KCNK17), full-length cDNA NM_031460.3; The end of the tag is read from the order in the construct's name; also called KCNK17; source: HEK293, transiently transfected, in living cells; not shown: CFP, N-terminal, kept
T1 sequence (looked up): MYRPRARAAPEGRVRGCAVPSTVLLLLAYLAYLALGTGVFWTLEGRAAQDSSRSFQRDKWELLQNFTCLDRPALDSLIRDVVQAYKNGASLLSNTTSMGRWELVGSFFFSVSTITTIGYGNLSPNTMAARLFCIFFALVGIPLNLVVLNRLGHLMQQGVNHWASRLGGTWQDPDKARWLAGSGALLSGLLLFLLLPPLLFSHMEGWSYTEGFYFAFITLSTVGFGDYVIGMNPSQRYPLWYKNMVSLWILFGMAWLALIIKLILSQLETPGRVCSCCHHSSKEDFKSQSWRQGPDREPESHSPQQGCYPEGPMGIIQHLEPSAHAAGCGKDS


Experiments:
CFP-TALK2 = biological target: T1, CFP-TALK2; experiment: FRET or BRET; acceptor photobleaching FRET (CFP donor, YFP acceptor) in HEK293 cells, confocal microscope; cDNA ratio CFP:YFP 1:1; E_FRET = percent increase in CFP emission after YFP photobleaching; conditions: partners not purified
CFP-TASK1 = biological target: T2, CFP-TASK1 (human, UniProt O14649 1-394); experiment: as above; conditions: partners not purified
T2 construct: human TASK1 (KCNK3), full-length cDNA NM_002246.2; The end of the tag is read from the order in the construct's name; also called KCNK3; source: HEK293, transiently transfected, in living cells; not shown: CFP, N-terminal, kept

E_FRET (CFP-TALK2) | E_FRET (CFP-TASK1) | Binder
8.6% |  | TALK2-YFP (natural protein, human, UniProt Q96T54-3 1-332, looked up, human TALK2 (KCNK17), full-length cDNA NM_031460.3; The end of the tag is read from the order in the construct's name; also called KCNK17; source: HEK293, transiently transfected, in living cells; not shown: YFP, C-terminal, kept) MYRPRARAAPEGRVRGCAVPSTVLLLLAYLAYLALGTGVFWTLEGRAAQDSSRSFQRDKWELLQNFTCLDRPALDSLIRDVVQAYKNGASLLSNTTSMGRWELVGSFFFSVSTITTIGYGNLSPNTMAARLFCIFFALVGIPLNLVVLNRLGHLMQQGVNHWASRLGGTWQDPDKARWLAGSGALLSGLLLFLLLPPLLFSHMEGWSYTEGFYFAFITLSTVGFGDYVIGMNPSQRYPLWYKNMVSLWILFGMAWLALIIKLILSQLETPGRVCSCCHHSSKEDFKSQSWRQGPDREPESHSPQQGCYPEGPMGIIQHLEPSAHAAGCGKDS
7.8% | 9.8% | TASK1-YFP (natural protein, human, UniProt O14649 1-394, looked up, human TASK1 (KCNK3), full-length cDNA NM_002246.2; The end of the tag is read from the order in the construct's name; also called KCNK3; source: HEK293, transiently transfected, in living cells; not shown: YFP, C-terminal, kept) MKRQNVRTLALIVCTFTYLLVGAAVFDALESEPELIERQRLELRQQELRARYNLSQGGYEELERVVLRLKPHKAGVQWRFAGSFYFAITVITTIGYGHAAPSTDGGKVFCMFYALLGIPLTLVMFQSLGERINTLVRYLLHRAKKGLGMRRADVSMANMVLIGFFSCISTLCIGAAAFSHYEHWTFFQAYYYCFITLTTIGFGDYVALQKDQALQTQPQYVAFSFVYILTGLTVIGAFLNLVVLRFMTMNAEDEKRDAEHRALLTRNGQAGGGGGGGSAHTTDTASSTAAAGGGGFRNVYAEVLHFQSMCSCLWYKSREKLQYSIPMIIPRDLSTSDTCVEQSHSSPGGGGRYSDTPSRRCLCSGAPRSAISSVSTGLHSLSTFRGLMKRRSSV
